Laboratory results as given in PMC6033896, “Discovery of Mcl-1 inhibitors from integrated high throughput and virtual screening” (Scientific Reports, 2018).

Target: recombinant Bfl-1 protein (UniProt Q16548)
Assay: fluorescence polarisation; direct binding of the fluorescent Bid probe to recombinant protein; Ex 485 nm, Em 530 nm, room temperature; buffer of the Kd determination not told apart from the two competitive assay buffers

Chain of recombinant Bfl-1 protein (Q16548 whole entry): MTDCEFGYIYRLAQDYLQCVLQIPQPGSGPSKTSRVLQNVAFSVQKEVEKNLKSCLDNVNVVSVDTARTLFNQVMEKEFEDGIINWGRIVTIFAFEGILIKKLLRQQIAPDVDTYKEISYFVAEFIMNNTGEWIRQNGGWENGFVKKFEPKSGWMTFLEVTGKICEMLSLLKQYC

## fluorescent labelled Bid BH3 peptide
  Kd: 0.3 nM
